How the values were obtained:
Test in all cases: SPR, KD relative to WT C2;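 further: biacore SPR at 37 °C, anti-C2 mAbs captured via immobilised goat anti-human IgG, C2 alanine or serine surface mutants as analytes, 1:1 model fitted, double-referenced sensograms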
human C2 K274A = molecular target: T1, human C2 K274A (human, UniProt P06681 21-752)
T1 sequence: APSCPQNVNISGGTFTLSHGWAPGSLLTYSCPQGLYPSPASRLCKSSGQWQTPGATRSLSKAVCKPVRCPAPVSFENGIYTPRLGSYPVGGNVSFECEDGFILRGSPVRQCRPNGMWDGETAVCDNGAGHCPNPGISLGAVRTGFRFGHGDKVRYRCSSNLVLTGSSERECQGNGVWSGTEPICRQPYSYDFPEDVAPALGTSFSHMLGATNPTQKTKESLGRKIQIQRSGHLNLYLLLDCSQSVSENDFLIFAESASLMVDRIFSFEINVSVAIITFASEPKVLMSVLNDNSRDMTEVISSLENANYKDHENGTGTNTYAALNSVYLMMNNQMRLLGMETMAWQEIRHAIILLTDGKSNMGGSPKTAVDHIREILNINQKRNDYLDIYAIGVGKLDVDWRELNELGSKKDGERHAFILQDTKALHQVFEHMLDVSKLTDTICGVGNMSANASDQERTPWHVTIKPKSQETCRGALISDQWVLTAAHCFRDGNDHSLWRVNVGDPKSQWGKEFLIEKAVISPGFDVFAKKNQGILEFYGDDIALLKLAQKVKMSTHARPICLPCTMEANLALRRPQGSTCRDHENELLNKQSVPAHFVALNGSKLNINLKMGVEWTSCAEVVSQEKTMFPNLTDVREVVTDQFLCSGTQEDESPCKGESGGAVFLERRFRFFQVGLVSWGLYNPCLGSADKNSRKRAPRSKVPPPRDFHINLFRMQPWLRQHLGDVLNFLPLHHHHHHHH

human C2 S428A = molecular target: T2, human C2 S428A (human, UniProt P06681 21-752)
T2 sequence: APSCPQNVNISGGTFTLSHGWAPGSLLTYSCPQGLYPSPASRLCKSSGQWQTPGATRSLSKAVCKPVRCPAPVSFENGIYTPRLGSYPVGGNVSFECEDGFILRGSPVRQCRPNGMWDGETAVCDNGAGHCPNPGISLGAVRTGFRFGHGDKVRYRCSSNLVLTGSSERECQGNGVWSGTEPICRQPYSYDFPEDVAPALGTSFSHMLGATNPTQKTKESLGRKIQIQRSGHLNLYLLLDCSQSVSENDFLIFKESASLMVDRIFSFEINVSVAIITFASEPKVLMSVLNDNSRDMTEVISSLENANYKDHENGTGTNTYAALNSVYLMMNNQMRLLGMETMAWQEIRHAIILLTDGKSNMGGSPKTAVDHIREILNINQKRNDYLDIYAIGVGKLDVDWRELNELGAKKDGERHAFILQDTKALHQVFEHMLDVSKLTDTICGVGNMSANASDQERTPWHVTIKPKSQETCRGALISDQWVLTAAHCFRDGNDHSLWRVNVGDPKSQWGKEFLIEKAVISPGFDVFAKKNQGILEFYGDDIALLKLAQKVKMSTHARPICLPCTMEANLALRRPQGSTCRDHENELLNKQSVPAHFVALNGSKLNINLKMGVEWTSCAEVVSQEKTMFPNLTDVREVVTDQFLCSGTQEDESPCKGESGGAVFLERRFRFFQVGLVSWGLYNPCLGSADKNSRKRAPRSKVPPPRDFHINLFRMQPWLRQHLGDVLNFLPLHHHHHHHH

human C2 Y558A = molecular target: T3, human C2 Y558A (human, UniProt P06681 21-752)
T3 sequence: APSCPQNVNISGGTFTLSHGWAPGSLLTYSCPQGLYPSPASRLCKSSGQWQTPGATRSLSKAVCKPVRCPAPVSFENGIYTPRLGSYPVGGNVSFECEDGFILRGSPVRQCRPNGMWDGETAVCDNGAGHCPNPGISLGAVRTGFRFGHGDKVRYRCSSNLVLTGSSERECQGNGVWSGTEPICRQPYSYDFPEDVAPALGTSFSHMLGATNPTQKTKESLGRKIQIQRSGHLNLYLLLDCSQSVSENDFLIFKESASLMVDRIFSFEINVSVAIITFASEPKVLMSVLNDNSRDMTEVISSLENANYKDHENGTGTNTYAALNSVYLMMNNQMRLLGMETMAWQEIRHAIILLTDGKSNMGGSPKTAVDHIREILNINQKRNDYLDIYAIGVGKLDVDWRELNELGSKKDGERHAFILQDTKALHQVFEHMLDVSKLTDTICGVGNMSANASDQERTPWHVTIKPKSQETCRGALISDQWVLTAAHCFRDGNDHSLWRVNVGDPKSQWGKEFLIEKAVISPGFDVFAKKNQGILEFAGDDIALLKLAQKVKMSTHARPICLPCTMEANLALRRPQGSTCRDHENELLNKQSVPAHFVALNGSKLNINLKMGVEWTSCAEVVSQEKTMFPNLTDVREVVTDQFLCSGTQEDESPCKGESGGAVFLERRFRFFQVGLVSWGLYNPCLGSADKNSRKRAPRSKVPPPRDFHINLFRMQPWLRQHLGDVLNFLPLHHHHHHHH

human C2 P650A = molecular target: T4, human C2 P650A (human, UniProt P06681 21-752)
T4 sequence: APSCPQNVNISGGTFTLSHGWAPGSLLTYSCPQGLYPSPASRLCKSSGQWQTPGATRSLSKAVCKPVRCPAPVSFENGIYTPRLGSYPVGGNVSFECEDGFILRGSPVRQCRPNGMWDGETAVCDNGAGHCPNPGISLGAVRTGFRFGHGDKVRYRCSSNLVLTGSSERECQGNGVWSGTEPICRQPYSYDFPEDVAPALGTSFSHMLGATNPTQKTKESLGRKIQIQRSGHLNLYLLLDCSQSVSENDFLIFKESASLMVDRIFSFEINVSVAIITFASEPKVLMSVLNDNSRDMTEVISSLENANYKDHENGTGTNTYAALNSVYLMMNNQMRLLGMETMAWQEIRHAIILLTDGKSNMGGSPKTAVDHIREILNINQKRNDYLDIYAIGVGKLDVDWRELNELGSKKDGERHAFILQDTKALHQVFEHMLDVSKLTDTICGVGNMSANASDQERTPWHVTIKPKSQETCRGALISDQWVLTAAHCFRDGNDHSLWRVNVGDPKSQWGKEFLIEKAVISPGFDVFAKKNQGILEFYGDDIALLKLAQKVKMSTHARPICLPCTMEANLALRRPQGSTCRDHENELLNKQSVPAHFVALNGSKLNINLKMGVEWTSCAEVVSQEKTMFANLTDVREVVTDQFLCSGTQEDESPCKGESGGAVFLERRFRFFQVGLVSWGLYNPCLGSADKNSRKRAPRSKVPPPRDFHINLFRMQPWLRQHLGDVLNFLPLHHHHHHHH

B1: RF16-226 (antibody, human IgG4 S228P, lambda)
heavy: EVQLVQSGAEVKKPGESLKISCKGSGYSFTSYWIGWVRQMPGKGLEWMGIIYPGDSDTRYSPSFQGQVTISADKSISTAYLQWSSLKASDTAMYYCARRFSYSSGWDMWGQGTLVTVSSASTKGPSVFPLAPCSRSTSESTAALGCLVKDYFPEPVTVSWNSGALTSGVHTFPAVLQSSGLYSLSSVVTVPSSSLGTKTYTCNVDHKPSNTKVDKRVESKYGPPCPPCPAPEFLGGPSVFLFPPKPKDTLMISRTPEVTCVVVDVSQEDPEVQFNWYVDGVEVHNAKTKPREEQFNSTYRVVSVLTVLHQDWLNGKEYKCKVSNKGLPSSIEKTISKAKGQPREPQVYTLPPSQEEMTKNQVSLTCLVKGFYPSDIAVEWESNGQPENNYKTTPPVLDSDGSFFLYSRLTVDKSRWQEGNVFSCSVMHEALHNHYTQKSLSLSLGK
light: SYELTQPPSVSVSPGQTARITCSGDALTSKYVAWYQQKSGLAPLLVIYEDTRRPSGIPAKFSGSSSGSVATLTISGAHGDDEADYYCYSTDASGHQRVFGGGTKLTVLSQPKAAPSVTLFPPSSEELQANKATLVCLISDFYPGAVTVAWKADGSPVKAGVETTKPSKQSNNKYAASSYLSLTPEQWKSHRSYSCQVTHEGSTVEKTVAPTECS
notes: pH-dependent anti-C2 antibody from a phage display library; also called WT
Question: B1 was tested. Which Fold diff (human C2 K274A) did it give?
Answer: 29 fold

Question: What about the Fold diff (human C2 S428A) of the same binder?
Answer: 2 fold

Question: What about the Fold diff (human C2 Y558A) of the same binder?
Answer: 16 fold

Question: And the Fold diff (human C2 P650A)?
Answer: 2 fold

— patent publication US20220332804A1 (CSL INNOVATION, published 2022)
